Key:
Format in all cases: cell-based
human eosinophils [1] = assay: Antagonist activity using shape change of human eosinophils as index (Example 19); conditions: DKPGD2 0.1-1000 nM, FIG. 16
Protocol: Eosinophils were separated from human peripheral blood in the same manner as in Example 11. The isolated human eosinophils were suspended with Dulbecco's phosphate buffered saline (hereinafter, referred to as D-PBS (−)) (NACALAI TESQUE, Inc.) and performed a reaction in a 5% CO2 incubator at 37° C. for 1 hour and 30 minutes. Thereafter, the cells were seeded in a 96-well plate at 2×10^5 cells/well using 10% FBS-containing RPMI1640. Next, an isotype control antibody [CELL LAB Rat IgG2b Isotype Control (Beckman Coulter Inc.)] at a final concentration of 10 μg/mL or Lym2 antibody; or small molecular CRTH2 antagonist 00000459 (Cayman Chemical) at a final concentration of 10 μM as a positive control, was added thereto to cause a reaction in a 5% CO2 incubator at 37° C. for 30 minutes.
Next, DKPGD2 (Cayman Chemical) at each of final concentrations of 0.1, 1, 10, 100, and 1000 nM was added thereto to cause a reaction in a 5% CO2 incubator at 37° C. for 60 minutes. After the reaction, the cells were washed twice with ice-cold PBS, Fixation Buffer (BD Biosciences) was added at 200 μL/well, and the resultant was suspended well and allowed to stand at 4° C. for 30 minutes. After that, the cells were washed twice with SM, and shape change of eosinophils was analyzed by flow cytometry (BD Biosciences, FACS CantoII).
The shape change of eosinophils was analyzed based on an increase in Forward Scatter Light (FSC) plot which is an index of the cell size, the cell surface area, or the cell diameter in the analysis using flow cytometry and the percentage (%) of eosinophils detected in the gate of high FSC was calculated based on the FSC of DKPGD2-untreated eosinophils.

human basophils = assay: Basophil depletion (cytotoxic) activity in human peripheral blood cells, flow cytometry; conditions: Example 8; 0.01-1000 ng/mL, 37° C., 20 hours; FIG. 3
Protocol: (§1) Human peripheral blood collected by adding a heparin sodium injection liquid was centrifuged at 4° C. and 1500 rpm for 30 minutes, and the plasma was recovered.
(§2) After the plasma was recovered, PBS (NACALAI TESQUE, Inc.) was added to the pellet containing the red blood up to the original volume of blood and the pellet was suspended. Next, to 1 mL of the suspension, 10 mL of hemolyzing solution [solution obtained by diluting 10×RBC Lysis buffer (eBioscience) 10 times with sterile water] was added to be mixed by inversion. The resultant was allowed to stand at room temperature for 10 minutes and centrifuged at room temperature and 1500 rpm for 5 minutes and washed twice with PBS after the supernatant was removed therefrom.
(§3) Thereafter, the cell pellet was suspended with the recovered plasma and the cells were seeded in a 48-well plate at 300 μL/well, each of chLym2, humanized Lym2 antibodies LV0HV0, LV0HV1, and LV0HV2a, or an isotype control antibody [IgG1 antibody prepared according to the method described in Example 5 using a vector encoding an anti-2,4-dinitrophenol (DNP) IgG1 antibody described in Clin Cancer Res 2005, 11(8), 3126 to 3135 (hereinafter, referred to as anti-DNP IgG1 antibody)] were added at each final concentrations of 1000, 100, 33, 11, 3.7, 1.2, 0.4, and 0.01 ng/mL to cause a reaction in a 5% CO2 incubator at 37° C. for 20 hours.
(§4) After the reaction, the cell fluid in each well was recovered, 10 mL of SM was added thereto, 200 μL per sample of CountBright Absolute Counting Beads, for flow cytometry (Molecular Probes) was added as control beads, and the fluid was centrifuged at 4° C. and 2000 rpm for 10 minutes, and then the supernatant was removed. The resultant was washed twice with SM, 10000 μg/mL of IgG from human serum (Sigma-Aldrich Co. LLC) diluted with SM was added at 300 μL/sample and suspended to cause a reaction at 4° C. for 30 minutes. […]
(§5) The cells were washed twice with SM, suspended by SM containing 1% of 7-AAD Staining Solution (BD Biosciences), allowed to stand at 4° C. for 10 minutes, and the fluorescent intensity was analyzed by flow cytometry (BD Biosciences, FACS CantoII).
(§6) Human eosinophils were detected as 7-AAD negative siglec8-PE positive fractions in granulocyte fractions of FSC-SSC deployment. Human basophils were detected as 7-AAD negative fractions, CD123-PC-Cy7 positive fractions, FcεRI-APC positive fractions in lymphocyte fractions of FSC-SSC deployment. The cell depletion activity was evaluated by analyzing the count number of each cell per a certain number of CountBright. […]

human eosinophils [2] = assay: Eosinophil depletion (cytotoxic) activity in human peripheral blood cells, flow cytometry; conditions: Example 8; 0.01-1000 ng/mL, 37° C., 20 hours; FIG. 3
Protocol: as §1, §2, §3, §4, §5, §6

Row | Molecule | shape change of eosinophils induced by ligand (human eosinophils [1]; 37° C., 60 minutes) | inhibition of DKPGD2-dependent shape change of eosinophils (antagonist activity) (human eosinophils [1]; antibody 10 μg/mL or small molecule 10 μM) | cytotoxic activity against basophils (human basophils) | cytotoxic activity against eosinophils (human eosinophils [2])
1 | CCCCCC(=O)CC[C@H]1C(=O)C[C@H](O)[C@@H]1C/C=C\CCCC(=O)O [DKPGD2, 13, 14-dihydro-15-keto prostaglandin D2] | induced shape change of eosinophils in a concentration-dependent manner | – | – | –
2 | Cc1c(Cc2ccc3ccccc3n2)c2cc(F)ccc2n1CC(=O)O [OC000459] | – | inhibited | – | –
3 | LV0HV0: humanized Lym2 antibody, VL LV0 (SEQ ID NO: 33), VH HV0 (SEQ ID NO: 49) (antibody, V domains shown) VH: EVQLVESGGGVVQPGRSLRLSCAASGFTFSNYYMAWVRQAPGKGLEWVATISYDGSSTYYRDSVKGRFTISRDNAKNSLYLQMNSLRAEDTAVYYCARHRGYYYSGAGYFDYWGQGTMVTVSS VL: DIVMTQTPLSLPVTPGESASISCRSSQSLEYSDGYTYLEWYLQKPGQSPQVLIYGVSNRFSGVPDRFSGSGSGTDFTLKISRVEAEDVGVYYCFQATHDPLTFGQGTKLEIK | – | – | comparable to the chimeric Lym2 antibody chLym2 | comparable to the chimeric Lym2 antibody chLym2
4 | LV0HV2a: humanized Lym2 antibody, VL LV0 (SEQ ID NO: 33), VH HV2a (SEQ ID NO: 53) (antibody, V domains shown) VH: EVQLVESGGGVVQPGRSLRLSCAASGFTFSNYYMAWVRQAPGKGLEWVATISYDGSSTYYRDSVKGRFTISRDNAKNSLYLQMNSLRAEDTATYYCARHRGYYYSGAGYFDYWGQGVMVTVSS VL: DIVMTQTPLSLPVTPGESASISCRSSQSLEYSDGYTYLEWYLQKPGQSPQVLIYGVSNRFSGVPDRFSGSGSGTDFTLKISRVEAEDVGVYYCFQATHDPLTFGQGTKLEIK | – | – | comparable to the chimeric Lym2 antibody chLym2 | comparable to the chimeric Lym2 antibody chLym2

— patent US10100120B2, “Antibody which specifically binds to human CRTH2” (KYOWA HAKKO KIRIN CO., LTD, priority 2015, dated 2018)
